# Earlier results in PMC3563353.
# Target: 4-phenylbutyryl-His-DPhe-Arg-Trp-Gly-Lys
# Assay: competition binding
# Sequence of MC1R (Q01726 whole entry): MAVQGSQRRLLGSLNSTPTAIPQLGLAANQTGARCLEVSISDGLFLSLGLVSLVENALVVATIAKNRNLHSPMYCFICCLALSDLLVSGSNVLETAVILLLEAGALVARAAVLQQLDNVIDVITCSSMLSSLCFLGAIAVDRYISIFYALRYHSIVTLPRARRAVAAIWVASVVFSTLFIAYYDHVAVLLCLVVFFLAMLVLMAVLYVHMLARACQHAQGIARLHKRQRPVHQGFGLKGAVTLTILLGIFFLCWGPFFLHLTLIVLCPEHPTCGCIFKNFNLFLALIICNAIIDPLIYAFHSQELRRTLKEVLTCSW
# Sequence of MC5R (P33032 whole entry): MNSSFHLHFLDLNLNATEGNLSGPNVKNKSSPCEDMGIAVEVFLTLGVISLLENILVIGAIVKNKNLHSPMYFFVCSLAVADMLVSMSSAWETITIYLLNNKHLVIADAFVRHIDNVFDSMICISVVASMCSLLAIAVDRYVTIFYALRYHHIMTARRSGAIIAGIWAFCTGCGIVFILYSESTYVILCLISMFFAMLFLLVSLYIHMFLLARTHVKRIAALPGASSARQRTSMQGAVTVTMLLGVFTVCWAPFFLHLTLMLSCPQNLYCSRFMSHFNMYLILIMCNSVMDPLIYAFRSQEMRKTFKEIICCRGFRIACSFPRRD
# Sequence of MC4R (P32245 whole entry): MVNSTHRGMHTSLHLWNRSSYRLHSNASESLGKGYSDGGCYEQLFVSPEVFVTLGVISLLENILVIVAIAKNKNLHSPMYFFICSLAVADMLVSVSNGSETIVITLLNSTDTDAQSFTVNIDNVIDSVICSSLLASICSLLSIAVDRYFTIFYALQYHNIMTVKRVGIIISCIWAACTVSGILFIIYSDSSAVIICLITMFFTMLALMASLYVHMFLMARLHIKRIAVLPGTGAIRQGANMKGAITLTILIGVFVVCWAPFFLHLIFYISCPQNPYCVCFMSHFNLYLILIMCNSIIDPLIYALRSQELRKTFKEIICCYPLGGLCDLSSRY
row,Ki [nM],Substance
1,254,MC4R (from UniProt P32245)
2,0.24,MC1R (from UniProt Q01726)
3,46,MC5R (from UniProt P33032)
